Measured values reported in the supplement of paper PMC9112550, “Optimization of the antimicrobial peptide Bac7 by deep mutational scanning” (BMC Biology, 2022).

System: Escherichia coli TOP10
Experiment: shrunken log2 fold change of peptide-encoding DNA abundance (4.5 h post-induction vs induction); higher = less antimicrobial activity (less host growth inhibition)
Conditions: time post-induction: 4.5 h; library: site-saturation at positions 5, 18, 19, 20
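Also: peptides expressed intracellularly from a pBAD plasmid library in pooled LB shake-flask culture, induced with 0.3% L-arabinose, DNA abundance read by NGS, three biological replicates, DESeq2 with apeglm shrinkage.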

## RRIRGRPPRLPRPRPRPRMRPRP
  shrunken log2 fold change: 1.38

## RRIRMRPPRLPRPRPRPPQSPRP
  shrunken log2 fold change: 0.721

## RRIRYRPPRLPRPRPRPSEEPRP
  shrunken log2 fold change: -0.111

## RRIRLRPPRLPRPRPRPLKIPRP
  shrunken log2 fold change: -0.221

## RRIRRRPPRLPRPRPRPGYVPRP
  shrunken log2 fold change: 0.183

## RRIRYRPPRLPRPRPRPHHVPRP
  shrunken log2 fold change: -0.00992

## RRIRSRPPRLPRPRPRPHCTPRP
  shrunken log2 fold change: -0.298

## RRIRGRPPRLPRPRPRPIANPRP
  shrunken log2 fold change: 0.42

## RRIRPRPPRLPRPRPRPHVTPRP
  shrunken log2 fold change: -0.0437

## RRIRDRPPRLPRPRPRPMHIPRP
  shrunken log2 fold change: -0.11

## RRIRIRPPRLPRPRPRPWLDPRP
  shrunken log2 fold change: -0.353

## RRIRERPPRLPRPRPRPTPPPRP
  shrunken log2 fold change: 0.491

## RRIRNRPPRLPRPRPRPPEKPRP
  shrunken log2 fold change: 0.0323

## RRIRARPPRLPRPRPRPHFPPRP
  shrunken log2 fold change: 0.0382

## RRIRTRPPRLPRPRPRPVDEPRP
  shrunken log2 fold change: -0.146

## RRIRRRPPRLPRPRPRPYIGPRP
  shrunken log2 fold change: -0.399

## RRIRGRPPRLPRPRPRPAFVPRP
  shrunken log2 fold change: 0.373

## RRIRKRPPRLPRPRPRPFEYPRP
  shrunken log2 fold change: -0.00133

## RRIRSRPPRLPRPRPRPMEYPRP
  shrunken log2 fold change: -0.00133

## RRIRARPPRLPRPRPRPHIAPRP
  shrunken log2 fold change: -0.111

## RRIRGRPPRLPRPRPRPFRDPRP
  shrunken log2 fold change: 0.0814

## RRIRRRPPRLPRPRPRPCMMPRP
  shrunken log2 fold change: -0.292

## RRIRQRPPRLPRPRPRPDQAPRP
  shrunken log2 fold change: 0.0424

## RRIRHRPPRLPRPRPRPLDTPRP
  shrunken log2 fold change: 0.0608

## RRIRRRPPRLPRPRPRPVRQPRP
  shrunken log2 fold change: 0.874

## RRIRYRPPRLPRPRPRPSPGPRP
  shrunken log2 fold change: -0.726

## RRIRGRPPRLPRPRPRPNTHPRP
  shrunken log2 fold change: 0.102

## RRIRHRPPRLPRPRPRPNVWPRP
  shrunken log2 fold change: 0.0763

## RRIRHRPPRLPRPRPRPHDSPRP
  shrunken log2 fold change: -0.03

## RRIRERPPRLPRPRPRPWTRPRP
  shrunken log2 fold change: -0.0974

## RRIRWRPPRLPRPRPRPWRHPRP
  shrunken log2 fold change: -0.141

## RRIRIRPPRLPRPRPRPYSEPRP
  shrunken log2 fold change: -0.535

## RRIRARPPRLPRPRPRPWSQPRP
  shrunken log2 fold change: 0.149

## RRIRWRPPRLPRPRPRPDMTPRP
  shrunken log2 fold change: 0.216

## RRIRHRPPRLPRPRPRPFFFPRP
  shrunken log2 fold change: 0.123

## RRIRIRPPRLPRPRPRPWDTPRP
  shrunken log2 fold change: -0.231

## RRIRRRPPRLPRPRPRPQMMPRP
  shrunken log2 fold change: -0.232

## RRIRSRPPRLPRPRPRPNEEPRP
  shrunken log2 fold change: 0.0709

## RRIRARPPRLPRPRPRPQCQPRP
  shrunken log2 fold change: 0.457

## RRIRDRPPRLPRPRPRPPRLPRP
  shrunken log2 fold change: 0.144

## RRIRQRPPRLPRPRPRPADKPRP
  shrunken log2 fold change: -0.137

## RRIRPRPPRLPRPRPRPMAMPRP
  shrunken log2 fold change: -0.146

## RRIRYRPPRLPRPRPRPNPYPRP
  shrunken log2 fold change: -0.0428

## RRIRYRPPRLPRPRPRPMHAPRP
  shrunken log2 fold change: 0.495

## RRIRTRPPRLPRPRPRPNAMPRP
  shrunken log2 fold change: 0.0879

## RRIRFRPPRLPRPRPRPDSMPRP
  shrunken log2 fold change: -0.715

## RRIRNRPPRLPRPRPRPPRYPRP
  shrunken log2 fold change: 0.0834

## RRIRLRPPRLPRPRPRPCWKPRP
  shrunken log2 fold change: 0.00126

## RRIRGRPPRLPRPRPRPFLWPRP
  shrunken log2 fold change: 0.996

## RRIRSRPPRLPRPRPRPSTRPRP
  shrunken log2 fold change: -0.0999

## RRIRHRPPRLPRPRPRPRTGPRP
  shrunken log2 fold change: -0.111

## RRIRVRPPRLPRPRPRPEGEPRP
  shrunken log2 fold change: 0.171

## RRIRSRPPRLPRPRPRPCLFPRP
  shrunken log2 fold change: -0.193

## RRIRARPPRLPRPRPRPYPHPRP
  shrunken log2 fold change: -0.0654

## RRIRQRPPRLPRPRPRPDAEPRP
  shrunken log2 fold change: 0.105

## RRIRWRPPRLPRPRPRPYKIPRP
  shrunken log2 fold change: -0.286

## RRIRMRPPRLPRPRPRPPKCPRP
  shrunken log2 fold change: 0.0414

## RRIRPRPPRLPRPRPRPPICPRP
  shrunken log2 fold change: -0.474

## RRIRHRPPRLPRPRPRPWATPRP
  shrunken log2 fold change: -0.0619

## RRIRDRPPRLPRPRPRPVGIPRP
  shrunken log2 fold change: -0.0542

## RRIRERPPRLPRPRPRPQAHPRP
  shrunken log2 fold change: -0.0188

## RRIRIRPPRLPRPRPRPMIWPRP
  shrunken log2 fold change: -0.0224

## RRIRFRPPRLPRPRPRPWFHPRP
  shrunken log2 fold change: -0.714

## RRIRHRPPRLPRPRPRPCYCPRP
  shrunken log2 fold change: -0.617

## RRIRTRPPRLPRPRPRPHNFPRP
  shrunken log2 fold change: -0.0359

## RRIRGRPPRLPRPRPRPQNGPRP
  shrunken log2 fold change: 3.22

## RRIRSRPPRLPRPRPRPIGVPRP
  shrunken log2 fold change: 0.049

## RRIRTRPPRLPRPRPRPMDKPRP
  shrunken log2 fold change: -0.528

## RRIRKRPPRLPRPRPRPAPMPRP
  shrunken log2 fold change: 0.769

## RRIRARPPRLPRPRPRPHFDPRP
  shrunken log2 fold change: 0.22

## RRIRLRPPRLPRPRPRPDDMPRP
  shrunken log2 fold change: 0.0411

## RRIRNRPPRLPRPRPRPTELPRP
  shrunken log2 fold change: -0.0232

## RRIRPRPPRLPRPRPRPKRCPRP
  shrunken log2 fold change: -0.0846

## RRIRMRPPRLPRPRPRPRSDPRP
  shrunken log2 fold change: 0.722

## RRIRCRPPRLPRPRPRPMIMPRP
  shrunken log2 fold change: -0.854

## RRIRMRPPRLPRPRPRPANVPRP
  shrunken log2 fold change: -0.0273

## RRIRSRPPRLPRPRPRPNRKPRP
  shrunken log2 fold change: -0.596

## RRIRVRPPRLPRPRPRPGKTPRP
  shrunken log2 fold change: 0.0999

## RRIRHRPPRLPRPRPRPIMLPRP
  shrunken log2 fold change: -0.389

## RRIRARPPRLPRPRPRPRICPRP
  shrunken log2 fold change: 0.29

## RRIRTRPPRLPRPRPRPQSQPRP
  shrunken log2 fold change: -0.138

## RRIRERPPRLPRPRPRPKVQPRP
  shrunken log2 fold change: 0.105

## RRIRLRPPRLPRPRPRPQVDPRP
  shrunken log2 fold change: -0.136

## RRIRPRPPRLPRPRPRPQGSPRP
  shrunken log2 fold change: 0.0552

## RRIRRRPPRLPRPRPRPWSHPRP
  shrunken log2 fold change: -0.121

## RRIRSRPPRLPRPRPRPSNPPRP
  shrunken log2 fold change: -0.257

## RRIRMRPPRLPRPRPRPGIRPRP
  shrunken log2 fold change: 0.253

## RRIRQRPPRLPRPRPRPHANPRP
  shrunken log2 fold change: -0.671

## RRIRERPPRLPRPRPRPNGKPRP
  shrunken log2 fold change: -0.0394

## RRIRQRPPRLPRPRPRPAIRPRP
  shrunken log2 fold change: -0.0284

## RRIRVRPPRLPRPRPRPQQAPRP
  shrunken log2 fold change: -0.0616

## RRIRPRPPRLPRPRPRPIIFPRP
  shrunken log2 fold change: -0.0799

## RRIRMRPPRLPRPRPRPEKYPRP
  shrunken log2 fold change: 0.746

## RRIRTRPPRLPRPRPRPMGNPRP
  shrunken log2 fold change: -0.0115

## RRIRIRPPRLPRPRPRPEIEPRP
  shrunken log2 fold change: -0.0562

## RRIRARPPRLPRPRPRPSLEPRP
  shrunken log2 fold change: 0.455

## RRIRGRPPRLPRPRPRPWFRPRP
  shrunken log2 fold change: -0.0346

## RRIRWRPPRLPRPRPRPSSWPRP
  shrunken log2 fold change: 0.0927

## RRIRTRPPRLPRPRPRPAREPRP
  shrunken log2 fold change: 0.44

## RRIRKRPPRLPRPRPRPVFPPRP
  shrunken log2 fold change: 0.0527

## RRIRFRPPRLPRPRPRPTKFPRP
  shrunken log2 fold change: -0.355

## RRIRFRPPRLPRPRPRPVVHPRP
  shrunken log2 fold change: -0.106

## RRIRTRPPRLPRPRPRPTISPRP
  shrunken log2 fold change: -0.488

## RRIRQRPPRLPRPRPRPLDSPRP
  shrunken log2 fold change: -0.00448

## RRIRYRPPRLPRPRPRPYAEPRP
  shrunken log2 fold change: -0.193

## RRIRWRPPRLPRPRPRPTASPRP
  shrunken log2 fold change: 0.977

## RRIRVRPPRLPRPRPRPLSGPRP
  shrunken log2 fold change: 0.179

## RRIRTRPPRLPRPRPRPCELPRP
  shrunken log2 fold change: -0.271

## RRIRSRPPRLPRPRPRPAQLPRP
  shrunken log2 fold change: -0.142

## RRIRERPPRLPRPRPRPVCTPRP
  shrunken log2 fold change: -0.147

## RRIRYRPPRLPRPRPRPRFVPRP
  shrunken log2 fold change: -1.02

## RRIRLRPPRLPRPRPRPFNVPRP
  shrunken log2 fold change: -0.485

## RRIRLRPPRLPRPRPRPMYEPRP
  shrunken log2 fold change: 0.129

## RRIRYRPPRLPRPRPRPFVEPRP
  shrunken log2 fold change: -1.17

## RRIRARPPRLPRPRPRPSVIPRP
  shrunken log2 fold change: -0.0459

## RRIRHRPPRLPRPRPRPGGRPRP
  shrunken log2 fold change: 0.0167

## RRIRVRPPRLPRPRPRPDGAPRP
  shrunken log2 fold change: 0.413

## RRIRGRPPRLPRPRPRPHTSPRP
  shrunken log2 fold change: -0.00444

## RRIRKRPPRLPRPRPRPGVTPRP
  shrunken log2 fold change: 0.409

## RRIRIRPPRLPRPRPRPHANPRP
  shrunken log2 fold change: -0.181

## RRIRDRPPRLPRPRPRPGTAPRP
  shrunken log2 fold change: 0.0777

## RRIRDRPPRLPRPRPRPDNRPRP
  shrunken log2 fold change: 0.147

## RRIRKRPPRLPRPRPRPPDHPRP
  shrunken log2 fold change: 0.973

## RRIRARPPRLPRPRPRPRYDPRP
  shrunken log2 fold change: 0.166

## RRIRSRPPRLPRPRPRPTCYPRP
  shrunken log2 fold change: -0.0144
